PMC8809517, “Cofactor-independent RNA editing by a synthetic S-type PPR protein”
Substitutions are numbered along the chain they refer to.

T1: GFP-9S library array, motif 4 ND N98S;D124H (synthetic construct, N98S;D124H)
T1 chain: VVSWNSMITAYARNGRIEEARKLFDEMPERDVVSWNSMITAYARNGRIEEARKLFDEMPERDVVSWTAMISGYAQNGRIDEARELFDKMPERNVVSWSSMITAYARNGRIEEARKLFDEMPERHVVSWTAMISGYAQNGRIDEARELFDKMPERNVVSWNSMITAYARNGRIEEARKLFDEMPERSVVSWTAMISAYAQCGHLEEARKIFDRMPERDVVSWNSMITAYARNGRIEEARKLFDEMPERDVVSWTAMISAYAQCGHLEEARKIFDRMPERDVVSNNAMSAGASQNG

T2: GFP-9S library array, motif 4 ND N98R;D124A (synthetic construct, N98R;D124A)
T2 chain: T1 chain with S98R, H124A

T3: GFP-9S library array, motif 4 ND N98V;D124Q (synthetic construct, N98V;D124Q)
T3 chain: T1 chain with S98V, H124Q

T4: GFP-9S library array, motif 4 ND N98D;D124E (synthetic construct, N98D;D124E)
T4 chain: T1 chain with S98D, H124E

T5: GFP-9S library array, motif 4 ND N98V;D124A (synthetic construct, N98V;D124A)
T5 chain: T1 chain with S98V, H124A


Tests used:
Test in all cases: high-throughput RNA pulldown from lysate on Ni-NTA beads; HRP: 50 mM Tris pH 8, 150 mM NaCl, 1 mM beta-mercaptoethanol, 50 ug/ml BSA, 3 ug/ml yeast RNA, 0.5% heparin; ITC and FP: Tris pH 8, 200 mM KCl, 5% glycerol; MST: 50 mM Tris pH 8, 200 mM NaCl, 1 mM DTT, BSA, heparin, 0.05% Tween 20
Conditions in all cases: tags: N-terminal His-eGFP
[1] = molecular target: T1, GFP-9S library array, motif 4 ND …
[2] = molecular target: T2, GFP-9S library array, motif 4 ND …
[3] = molecular target: T3, GFP-9S library array, motif 4 ND …
[4] = molecular target: T4, GFP-9S library array, motif 4 ND …
[5] = molecular target: T5, GFP-9S library array, motif 4 ND …

Row | Binder | Kd ([1]; label: 5' Cy5) | Kd ([2]; label: 5' Cy5) | Kd ([3]; label: 5' Cy5) | Kd ([4]; label: 5' Cy5) | Kd ([5]; label: 5' Cy5) | Kd ([1]; label: 5' IRDye 800CW) | Kd ([2]; label: 5' IRDye 800CW) | Kd ([3]; label: 5' IRDye 800CW) | Kd ([4]; label: 5' IRDye 800CW) | Kd ([5]; label: 5' IRDye 800CW)
1 | AUUACACGUGA (ssRNA) [Cy5-rpoA] | 122 nM | 75.1 nM | 144 nM | 124 nM | 64.4 nM |  |  |  |  | 
2 | AUUAGACGUGA (ssRNA) [Cy5-rpoA-G] | 99.4 nM | 89.4 nM | 126 nM | 95.2 nM | 74.1 nM |  |  |  |  | 
3 | AUUAUACGUGA (ssRNA) [IR-rpoA-U] |  |  |  |  |  | 101 nM | 114 nM | 167 nM | 283 nM | 71.8 nM
4 | AUUAAACGUGA (ssRNA) [IR-rpoA-A] |  |  |  |  |  | 53.5 nM | 145 nM | 166 nM | 343 nM | 80.7 nM
